Our source for the Kd values is paper PMC8755082, “Recognition of G-quadruplex RNA by a crucial RNA methyltransferase component, METTL14”.

Data set [1] addresses T1, METTL3 MTD (MTD3);METTL14 MTD-RGG (MTD14-RGG) (human?;human?, UniProt Q86U44;Q9HCE5 255-580;110-456, |). The data set can be described thus: EMSA; K+ buffer; EMSA: 2.5 nM RNA, 10 mM potassium (or lithium) phosphate pH 7.5, 25 uM ZnCl2, 10 uM SAM, 0.5 mM DTT, 0.005% Tween 20, 2.5% ficoll, 50 ng/uL yeast tRNA, 4 C, 1 h; GST-RGG: 25 mM Tris-HCl pH 7.5 with 10 mM KCl or LiCl instead of phosphate. Conditions: protein: recombinant;recombinant, tags: Strep-tag II;His6, copies: 1;1, label: 5' FAM.

In data set [2] the target is T1, METTL3 MTD (MTD3);METTL14 MTD-RGG …. The data set can be described thus: EMSA; Li+ buffer; EMSA: 2.5 nM RNA, 10 mM potassium (or lithium) phosphate pH 7.5, 25 uM ZnCl2, 10 uM SAM, 0.5 mM DTT, 0.005% Tween 20, 2.5% ficoll, 50 ng/uL yeast tRNA, 4 C, 1 h; GST-RGG: 25 mM Tris-HCl pH 7.5 with 10 mM KCl or LiCl instead of phosphate. The following applies: protein: recombinant;recombinant; tags: Strep-tag II;His6; copies: 1;1; label: 5' FAM; no G4.

Data set [3] concerns the target METTL3 MTD (MTD3);METTL14 MTD without RGG (MTD14) (human?;human?, UniProt Q86U44;Q9HCE5 255-580;110-413, |). The data set can be described thus: EMSA; K+ buffer; EMSA: 2.5 nM RNA, 10 mM potassium (or lithium) phosphate pH 7.5, 25 uM ZnCl2, 10 uM SAM, 0.5 mM DTT, 0.005% Tween 20, 2.5% ficoll, 50 ng/uL yeast tRNA, 4 C, 1 h; GST-RGG: 25 mM Tris-HCl pH 7.5 with 10 mM KCl or LiCl instead of phosphate. The following applies: protein: recombinant;recombinant; tags: Strep-tag II;His6; copies: 1;1; label: 5' FAM; intramolecular parallel G4 in K+; unfolded in Li+. For orientation: In EMSA bound probe runs differently from free probe, usually more slowly.

T1 sequence (Q86U44 255-580, chain 1 of 2): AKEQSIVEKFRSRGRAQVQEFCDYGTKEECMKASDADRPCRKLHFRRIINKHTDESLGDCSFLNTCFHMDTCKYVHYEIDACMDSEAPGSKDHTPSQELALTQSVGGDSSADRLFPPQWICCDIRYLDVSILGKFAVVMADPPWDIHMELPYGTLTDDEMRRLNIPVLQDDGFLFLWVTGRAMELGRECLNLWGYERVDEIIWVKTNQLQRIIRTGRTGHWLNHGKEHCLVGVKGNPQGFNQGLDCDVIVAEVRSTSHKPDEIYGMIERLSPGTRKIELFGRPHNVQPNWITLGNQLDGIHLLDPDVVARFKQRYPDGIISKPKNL
T1 sequence (Q9HCE5 110-456, chain 2 of 2): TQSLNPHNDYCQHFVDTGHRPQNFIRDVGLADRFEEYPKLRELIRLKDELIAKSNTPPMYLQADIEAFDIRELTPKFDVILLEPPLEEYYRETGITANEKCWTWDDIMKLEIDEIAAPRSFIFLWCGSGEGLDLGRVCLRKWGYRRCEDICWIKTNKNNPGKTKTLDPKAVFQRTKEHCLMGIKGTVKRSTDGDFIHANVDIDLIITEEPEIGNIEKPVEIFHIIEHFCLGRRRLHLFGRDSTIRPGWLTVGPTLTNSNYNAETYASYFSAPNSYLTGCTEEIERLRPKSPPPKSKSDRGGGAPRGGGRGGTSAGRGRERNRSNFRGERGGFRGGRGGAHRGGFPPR
Sequence of METTL3 MTD (MTD3);METTL14 MTD without RGG (MTD14) (Q86U44 255-580, chain 1 of 2): as the sequence (Q86U44 255-580, chain 1 of 2) above
Sequence of METTL3 MTD (MTD3);METTL14 MTD without RGG (MTD14) (Q9HCE5 110-413, chain 2 of 2): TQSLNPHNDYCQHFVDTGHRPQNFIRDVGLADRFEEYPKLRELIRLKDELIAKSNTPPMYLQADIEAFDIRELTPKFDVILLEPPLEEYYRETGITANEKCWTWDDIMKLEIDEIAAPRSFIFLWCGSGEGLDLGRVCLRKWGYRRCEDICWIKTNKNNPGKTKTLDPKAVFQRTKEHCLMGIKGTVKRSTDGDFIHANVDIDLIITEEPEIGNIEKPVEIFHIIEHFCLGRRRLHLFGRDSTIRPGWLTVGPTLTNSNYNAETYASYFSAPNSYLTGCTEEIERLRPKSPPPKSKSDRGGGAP

Consider UUUUUUUUUUUUUGAGUGUGAGUGAGACAUGAGUGUGAGUG (ssRNA) [Non-G4 RNA2], for which the Kd in data set [1] (no G4) was determined as 309 ± 85 nM.
As to UUAGGGUUAGGGUUAGGGUUAGGGAGACAUUUUUUUUUUUU (structured_RNA) [G4 RNA4], in data set [1] (intramolecular G4 in K+, loops 3-3-3), the dissociation constant Kd amounted to 35 ± 9 nM.
For UGAGUGUGAGUGUUUUAGACAUUUUUGAGUGUGAGUG (ssRNA) [Non-G4 RNA1], the dissociation constant Kd is 209 ± 94 nM in data set [1] (no G4) and 149 ± 11 nM in data set [2].
For UUAGGGUUAGGGUUAGGGUUUUAGACAUUUUUUAGGG (structured_RNA) [G4 RNA2], the Kd in data set [1] (intramolecular G4 in K+, loops 3-3-16) turned out to be 36 ± 11 nM.
Turning to UUAGGGUUAGGGUUUUAGACAUUUUUUAGGGUUAGGG (structured_RNA) [G4 RNA1], the dissociation constant Kd amounted to 419 ± 109 nM in data set [3] and 35 ± 12 nM in data set [1] (intramolecular parallel G4 in K+, unfolded in Li+).
In the case of UUUUUUUUUUUUUUAGGGUUAGGGAGACAUUAGGGUUAGGG (structured_RNA) [G4 RNA3], in data set [1] (intramolecular G4 in K+, loops 3-8-3), the Kd is 29 ± 13 nM.

By Kd is commonly meant the equilibrium constant for the complex coming apart.
